We go through 1 substance from patent publication US20080305504.

Data set [1] has as its system T1, fluorogenic composition Cy5-SEQ. ID. NO.: 1-Cy7Q.
T1 sequence: KIIDEDLNSRALG

Data set [2] relates to T2, hC3 peptide modified with Gly attached to a Cy5 dye at the N terminus.
T2 sequence: KIIDEDLNSRALG

As to C3 convertase (in human plasma), in data set [1], the “fluorescence intensity (excitation 623 nm, emission 676 nm), latex-activated plasma against plasma alone after subtracting the PBS control” value is on record as “the signal enhancement due to Latex activation of complement was >100%” and the “fluorescence intensity (excitation 623 nm, emission 676 nm), plasma incubated on latex coated polystyrene against plasma alone” value was “showed >50% enhancement in signal over the plasma alone sample”. Further, in data set [2], the “cleavage of the Cy5-labelled peptide in human plasma in a Latex plate, by reverse phase HPLC at 670 nm” value is “A new peak was observed in addition to the original peak. The new peak represents the cleavage product”.
